5 molecules from patent US20220089704A1 (Biogen, published 2022) can be followed below.

Assay [1] concerns the target T1, Human alpha-synuclein (human, UniProt P37840 1-140). The assay is described as follows: direct binding ELISA, plates coated with human alpha-synuclein, anti-hIgG-HRP detection. The source says: (§1) FIG. 46A is a graph showing alpha-synuclein direct binding ELISA. Human alpha-synuclein was coated on ELISA plates, treated with several dilutions of test reagents, and antibody binding at the indicated concentrations was detected with an HRP conjugated anti-hIgG secondary, measured by absorbance at 450 nm.
(In general: An ELISA detects its analyte on a solid surface through an enzyme-linked reagent.)

Assay [2] deals with T1, Human alpha-synuclein. The assay is described as follows: direct binding ELISA, plates coated with human alpha-synuclein; 12F4 hIgG1 as reference.
Source text: as §1

B1: FC5-H62(T33C/A104C)-12F4(LC) hIgG1 (bispecific antibody)
heavy: not shown
light: DVQLVESGGGLVQPGGSLRLSCAASGFKITHYCTGWFRQAPGKEREFVSRITWGGDNTFYSNSVKGRFTISRDNSKNTVYLQMNSLRAEDTAVYYCAAGSTSTCTPLRVDYWGQGTLVTVSSGGGGSSYELTQPPSVSVSPGQTARITCSGEALPMQFAHWYQQRPGKAPVIVVYKDSERPSGVPERFSGSSSGTTATLTITGVQAEDEADYYCQSPDSTNTYEVFGGGTKLTVLSQPKAAPSVTLFPPSSEELQANKATLVCLISDFYPGAVTVAWKADSSPVKAGVETTTPSKQSNNKYAASSYLSLTPEQWKSHRSYSCQVTHEGSTVEKTVAPTECS
notes: also called hFC5.2-12F4(LC) hIgG1; FC5-H62(T33C/A104C)-12F4 hIgG1
Consider B1, for which, in assay [1], the binding result is reported as “binds”.

B2: FC5-H62(T33C/A104C)-12F4(LC) hIgG4P/G1 agly (bispecific antibody)
heavy: EVQLVESGGGLVEPGGSLRLSCAVSGFDFEKAWMSWVRQAPGQGLQWVARIKSTADGGTTSYAAPVEGRFIISRDDSRNMLYLQMNSLKTEDTAVYYCTSAHWGQGTLVTVSSASTKGPSVFPLAPCSRSTSESTAALGCLVKDYFPEPVTVSWNSGALTSGVHTFPAVLQSSGLYSLSSVVTVPSSSLGTKTYTCNVDHKPSNTKVDKRVESKYGPPCPPCPAPEFLGGPSVFLFPPKPKDTLMISRTPEVTCVVVDVSQEDPEVQFNWYVDGVEVHNAKTKPREEQFQSTYRVVSVLTVLHQDWLNGKEYKCKVSNKGLPSSIEKTISKAKGQPREPQVYTLPPSRDELTKNQVSLTCLVKGFYPSDIAVEWESNGQPENNYKTTPPVLDSDGSFFLYSKLTVDKSRWQQGNVFSCSVMHEALHNHYTQKSLSLSPG
light: DVQLVESGGGLVQPGGSLRLSCAASGFKITHYCTGWFRQAPGKEREFVSRITWGGDNTFYSNSVKGRFTISRDNSKNTVYLQMNSLRAEDTAVYYCAAGSTSTCTPLRVDYWGQGTLVTVSSGGGGSSYELTQPPSVSVSPGQTARITCSGEALPMQFAHWYQQRPGKAPVIVVYKDSERPSGVPERFSGSSSGTTATLTITGVQAEDEADYYCQSPDSTNTYEVFGGGTKLTVLSQPKAAPSVTLFPPSSEELQANKATLVCLISDFYPGAVTVAWKADSSPVKAGVETTTPSKQSNNKYAASSYLSLTPEQWKSHRSYSCQVTHEGSTVEKTVAPTECS
Consider B2, for which the binding result in assay [1] is reported as “binds”.

B3: FC5-H62(T33C/A104C)-12F4(LC) hIgG2 SAA (bispecific antibody)
heavy: EVQLVESGGGLVEPGGSLRLSCAVSGFDFEKAWMSWVRQAPGQGLQWVARIKSTADGGTTSYAAPVEGRFIISRDDSRNMLYLQMNSLKTEDTAVYYCTSAHWGQGTLVTVSSASTKGPSVFPLAPCSRSTSESTAALGCLVKDYFPEPVTVSWNSGALTSGVHTFPAVLQSSGLYSLSSVVTVPSSNFGTQTYTCNVDHKPSNTKVDKTVERKSCVECPPCPAPPAAAPSVFLFPPKPKDTLMISRTPEVTCVVVDVSHEDPEVQFNWYVDGVEVHNAKTKPREEQFNSTFRVVSVLTVVHQDWLNGKEYKCKVSNKGLPAPIEKTISKTKGQPREPQVYTLPPSREEMTKNQVSLTCLVKGFYPSDIAVEWESNGQPENNYKTTPPMLDSDGSFFLYSKLTVDKSRWQQGNVFSCSVMHEALHNHYTQKSLSLSPG
light: DVQLVESGGGLVQPGGSLRLSCAASGFKITHYCTGWFRQAPGKEREFVSRITWGGDNTFYSNSVKGRFTISRDNSKNTVYLQMNSLRAEDTAVYYCAAGSTSTCTPLRVDYWGQGTLVTVSSGGGGSSYELTQPPSVSVSPGQTARITCSGEALPMQFAHWYQQRPGKAPVIVVYKDSERPSGVPERFSGSSSGTTATLTITGVQAEDEADYYCQSPDSTNTYEVFGGGTKLTVLSQPKAAPSVTLFPPSSEELQANKATLVCLISDFYPGAVTVAWKADSSPVKAGVETTTPSKQSNNKYAASSYLSLTPEQWKSHRSYSCQVTHEGSTVEKTVAPTECS
As for B3, in assay [1], the binding result was “binds”.

B4: FC5-H62(T33C/A104C)-12F4(LC) hIgG1 agly (N297Q) (bispecific antibody)
heavy: not shown
light: DVQLVESGGGLVQPGGSLRLSCAASGFKITHYCTGWFRQAPGKEREFVSRITWGGDNTFYSNSVKGRFTISRDNSKNTVYLQMNSLRAEDTAVYYCAAGSTSTCTPLRVDYWGQGTLVTVSSGGGGSSYELTQPPSVSVSPGQTARITCSGEALPMQFAHWYQQRPGKAPVIVVYKDSERPSGVPERFSGSSSGTTATLTITGVQAEDEADYYCQSPDSTNTYEVFGGGTKLTVLSQPKAAPSVTLFPPSSEELQANKATLVCLISDFYPGAVTVAWKADSSPVKAGVETTTPSKQSNNKYAASSYLSLTPEQWKSHRSYSCQVTHEGSTVEKTVAPTECS
notes: also called FC5-H62(T33C/A104C)-12F4 hIgG1 agly
As to B4, the binding result in assay [1] was “binds”.

B5: 12F4 hIgG1 (antibody, V domains shown)
VH: EVQLVESGGGLVEPGGSLRLSCAVSGFDFEKAWMSWVRQAPGQGLQWVARIKSTADGGTTSYAAPVEGRFIISRDDSRNMLYLQMNSLKTEDTAVYYCTSAHWGQGTLVTVSS
VL: SYELTQPPSVSVSPGQTARITCSGEALPMQFAHWYQQRPGKAPVIVVYKDSERPSGVPERFSGSSSGTTATLTITGVQAEDEADYYCQSPDSTNTYEVFGGGTKLTVLS
notes: also called anti-alpha synuclein (12F4); 12F4 without FC5 attached
On to B5, for which, in assay [2], the binding result is on record as “binds”.
